Laboratory results taken from patent US20140056882A1.

Biological target: mouse G-CSF (mGCSF, R&D Systems Cat#414-CS) (mouse) (UniProt P09920)
Test: cell-based or functional assay

UniProt P09920, sequence (P09920 31-208 limits assumed): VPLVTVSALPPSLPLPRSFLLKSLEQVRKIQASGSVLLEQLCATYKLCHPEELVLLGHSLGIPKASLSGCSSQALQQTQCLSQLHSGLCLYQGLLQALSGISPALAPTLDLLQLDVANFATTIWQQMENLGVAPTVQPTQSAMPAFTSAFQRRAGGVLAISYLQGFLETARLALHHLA

Row | IC50, inhibition of mG-CSF proliferation of hG-CSFR BaF3 cells (MTS reduction) | Substance
1 | 0.022 nM | soluble hG-CSFR-Fc protein (from UniProt Q99062 25-332) (Fc fusion)
2 | 0.01 nM | R&D Systems antibody MAB414 (rat anti-mouse G-CSF monoclonal antibody, clone 67604)
